Assay results as given in PMC4156911.
Read-outs that look alike come from different tables or passages of the source.

Experiments:
[1] = target: T1, E. coli core RNA polymerase (wild-type) (Escherichia coli, UniProt P0A7Z4;P0A8V2;P0A8T7;P0A800 1-329;1-1342;1-1407;1-91); assay: EMSA
[2] = target: T1, E. coli core RNA polymerase (wild-type); assay: EMSA; remark: listed apart in the source

T1 sequence (P0A7Z4 whole entry, chain 1 of 3): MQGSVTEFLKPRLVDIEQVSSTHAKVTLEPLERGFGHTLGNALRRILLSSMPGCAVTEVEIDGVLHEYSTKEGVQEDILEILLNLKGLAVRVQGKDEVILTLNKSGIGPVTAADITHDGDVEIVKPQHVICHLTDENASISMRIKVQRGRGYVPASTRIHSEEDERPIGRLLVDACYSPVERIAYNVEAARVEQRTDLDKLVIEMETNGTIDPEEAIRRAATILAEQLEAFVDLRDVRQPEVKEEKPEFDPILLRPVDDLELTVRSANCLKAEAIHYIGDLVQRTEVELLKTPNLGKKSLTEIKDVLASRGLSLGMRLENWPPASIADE
T1 sequence (P0A8V2 whole entry, chain 2 of 3): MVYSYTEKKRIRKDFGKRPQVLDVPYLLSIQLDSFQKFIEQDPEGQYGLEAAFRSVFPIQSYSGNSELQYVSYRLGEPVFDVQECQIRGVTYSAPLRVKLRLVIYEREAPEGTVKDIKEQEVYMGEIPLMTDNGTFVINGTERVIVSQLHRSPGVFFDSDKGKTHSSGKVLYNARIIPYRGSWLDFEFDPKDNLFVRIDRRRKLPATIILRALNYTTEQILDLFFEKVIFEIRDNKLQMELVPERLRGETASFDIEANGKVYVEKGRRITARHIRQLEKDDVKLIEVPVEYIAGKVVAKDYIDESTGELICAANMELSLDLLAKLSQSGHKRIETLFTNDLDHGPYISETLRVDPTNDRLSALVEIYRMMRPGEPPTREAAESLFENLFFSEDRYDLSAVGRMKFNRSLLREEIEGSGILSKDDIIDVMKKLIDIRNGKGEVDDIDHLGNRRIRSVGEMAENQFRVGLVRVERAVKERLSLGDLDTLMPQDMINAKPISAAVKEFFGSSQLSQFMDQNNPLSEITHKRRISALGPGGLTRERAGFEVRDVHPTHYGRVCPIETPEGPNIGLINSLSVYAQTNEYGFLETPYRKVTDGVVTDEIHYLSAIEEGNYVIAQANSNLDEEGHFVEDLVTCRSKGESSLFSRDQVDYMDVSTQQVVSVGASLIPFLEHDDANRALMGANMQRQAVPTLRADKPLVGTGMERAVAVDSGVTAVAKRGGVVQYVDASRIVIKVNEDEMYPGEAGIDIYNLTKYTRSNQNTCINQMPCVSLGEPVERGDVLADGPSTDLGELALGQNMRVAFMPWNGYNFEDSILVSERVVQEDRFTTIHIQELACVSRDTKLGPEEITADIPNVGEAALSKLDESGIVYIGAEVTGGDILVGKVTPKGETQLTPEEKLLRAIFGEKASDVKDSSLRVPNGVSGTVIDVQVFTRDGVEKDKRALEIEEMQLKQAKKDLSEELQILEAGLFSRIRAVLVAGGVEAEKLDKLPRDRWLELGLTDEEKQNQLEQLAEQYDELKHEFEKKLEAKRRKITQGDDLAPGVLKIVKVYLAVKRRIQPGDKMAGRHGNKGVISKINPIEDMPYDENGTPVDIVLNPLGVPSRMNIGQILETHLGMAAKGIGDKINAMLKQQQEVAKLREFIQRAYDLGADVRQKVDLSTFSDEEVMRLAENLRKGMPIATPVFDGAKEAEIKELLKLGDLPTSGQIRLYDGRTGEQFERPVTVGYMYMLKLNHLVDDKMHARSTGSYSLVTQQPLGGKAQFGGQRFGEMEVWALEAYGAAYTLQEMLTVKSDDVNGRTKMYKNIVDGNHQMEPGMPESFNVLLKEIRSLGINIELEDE
T1 sequence (P0A800 whole entry, chain 4 of 3): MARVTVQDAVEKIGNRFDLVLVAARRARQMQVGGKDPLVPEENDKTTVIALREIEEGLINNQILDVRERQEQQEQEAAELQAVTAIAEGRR

B1: his pause ePEC scaffold (RNA-7604, tDNA 5420, ntDNA 5069) (mixed)
RNA: UCAUCCGGCGAUGUGUGCU
DNA 1: CTCTGAATCTCTTCCAGCACACATCAGGACGTACTGACC
DNA 2: GGTCAGTACGTCCATTCGATCTTCGGAAGAGATTCAGAG
modifications: pyrrolo-cytosine at RNA nt 5 (Z in the printed sequence)
B1: binds [1].

B2: his pause ePEC scaffold + 8mer asRNA (RNA-6598) (mixed)
RNA 1: UCAUCCGGCGAUGUGUGCU
DNA 1: B1 DNA 1
DNA 2: B1 DNA 2
RNA 2: CCGGAUGA
modifications: pyrrolo-cytosine at RNA nt 5 (Z in the printed sequence)
B2: binds [2].
